This is an account of results in patent US20150259430A1 (MAB DISCOVERY, published 2015).

Where a chain is given by its changes, count along the chain named.

The target of experiment [1] is T1, recombinant Fc chimeric conjugate of human EGFR (human, UniProt P00533 25-645).
T1 construct: extracellular domain; Coated on the ELISA plate; also called HER1; Her1
In words: ELISA, coated antigen. For orientation: An ELISA detects its analyte on a solid surface through an enzyme-linked reagent.
Protocol: (§1) Microtiter plates were coated with a) c-Met, IGF-1R, EGFR, HER2, and/or HER3 protein or b) EGFR, HER2, and/or HER3 (recombinant Fc chimeric conjugates of human c-Met, IGF-1R, EGFR, HER2, HER3 or IL12 Rβ1). After a blocking process, specific antibodies from B-cell supernatants bind to the targets and are then detected by a POD-labeled anti-rabbit IgG antibody. The IL12R binding was used as a counter-screen.
(§2) 12.5 μL 0.5 μg/mL protein in PBS was transferred to a microtiter plate incubated and washed 3× with Wash Buffer. 90 μL Block Buffer was added to each well, incubated and washed. 12.5 μL Standard Antibody (Anti-EGF-Receptor; HER2 Rabbit anti-Human Monoclonal (extracellular domain) (SP3) Antibody; HER3 (N-terminal) antibody; start concentration 2 μg/ml; IL-12Rbeta1 antibody start concentration 500 ng/ml) in 1:2 dilutions or sample diluted in ELISA buffer was added, incubated and washed. 12.5 μl 1:5000 POD-Antibody (Anti-rabbit IgG, peroxidase-linked species-specific Fab2 fragment (from donkey) (ECL); assay dilution: 1:5000) in Elisa Buffer was added, incubated and washed. 15 μl TMB was added and 15 μl HCl was added after sufficient development. Absorbance (Optical Density O.D.) was read at 450 nm/620 nm.

Experiment [2] addresses T2, recombinant Fc chimeric conjugate of human HER2 (human, UniProt P04626 23-652).
T2 construct: extracellular domain; Coated on the ELISA plate
In words: ELISA, coated antigen.
Protocol: as §1, §2

The target in experiment [3] is T3, recombinant Fc chimeric conjugate of human c-Met (human, UniProt P08581 25-932).
T3 construct: extracellular domain; Coated on the ELISA plate
In words: ELISA, coated antigen.
Protocol: as §1, §2

For experiment [4], the target named is T2, recombinant Fc chimeric conjugate of …. In words: ELISA, coated antigen; supernatant IgG 51.60 ng/mL.
Protocol: as §1, §2
The target of experiment [5] is T4, recombinant Fc chimeric conjugate of human HER3 (human, UniProt P21860 20-643).
T4 construct: extracellular domain; Coated on the ELISA plate
In words: ELISA, coated antigen; supernatant IgG 51.60 ng/mL.
Protocol: as §1, §2

Experiment [6] deals with T3, recombinant Fc chimeric conjugate of …. In words: ELISA, coated antigen; supernatant IgG 51.60 ng/mL.
Protocol: as §1, §2
In experiment [7] the target is T1, recombinant Fc chimeric conjugate of …. In words: ELISA, coated antigen; supernatant IgG 183.28 ng/mL.
Protocol: as §1, §2
Experiment [8] has as its target T2, recombinant Fc chimeric conjugate of …. Described as above.
Protocol: as §1, §2
The target in experiment [9] is T4, recombinant Fc chimeric conjugate of …. The description is as above.
Protocol: as §1, §2
In experiment [10] the target is T3, recombinant Fc chimeric conjugate of …. The experiment is described as above.
Protocol: as §1, §2
In experiment [11] the target is T5, recombinant Fc chimeric conjugate of human IGF-1R (human, UniProt P08069 31-935).
T5 construct: extracellular domain; Coated on the ELISA plate
In words: ELISA, coated antigen.
Protocol: as §1, §2

The target in experiment [12] is T2, recombinant Fc chimeric conjugate of …. In words: ELISA, coated antigen; supernatant IgG 69.04 ng/mL.
Protocol: as §1, §2
In experiment [13] the target is T4, recombinant Fc chimeric conjugate of …. In words: ELISA, coated antigen; supernatant IgG 69.04 ng/mL.
Protocol: as §1, §2
For experiment [14], the target named is T3, recombinant Fc chimeric conjugate of …. In words: ELISA, coated antigen; supernatant IgG 69.04 ng/mL.
Protocol: as §1, §2
The target of experiment [15] is T1, recombinant Fc chimeric conjugate of …. In words: ELISA, coated antigen; supernatant IgG 81.8 ng/ml.
Protocol: as §1, §2
Experiment [16] addresses T2, recombinant Fc chimeric conjugate of …. In words: ELISA, coated antigen; supernatant IgG 81.8 ng/ml.
Protocol: as §1, §2
The target of experiment [17] is T4, recombinant Fc chimeric conjugate of …. In words: ELISA, coated antigen; supernatant IgG 81.8 ng/ml.
Protocol: as §1, §2
Experiment [18] addresses T1, recombinant Fc chimeric conjugate of …. In words: ELISA, coated antigen; supernatant IgG 719.9 ng/ml.
Protocol: as §1, §2
Experiment [19] concerns the target T2, recombinant Fc chimeric conjugate of …. In words: ELISA, coated antigen; supernatant IgG 719.9 ng/ml.
Protocol: as §1, §2
Experiment [20] has as its target T4, recombinant Fc chimeric conjugate of …. In words: ELISA, coated antigen; supernatant IgG 719.9 ng/ml.
Protocol: as §1, §2
Experiment [21] addresses T1, recombinant Fc chimeric conjugate of …. In words: ELISA, coated antigen; supernatant IgG 377.5 ng/ml.
Protocol: as §1, §2
For experiment [22], the target named is T2, recombinant Fc chimeric conjugate of …. In words: ELISA, coated antigen; supernatant IgG 377.5 ng/ml.
Protocol: as §1, §2
The target of experiment [23] is T4, recombinant Fc chimeric conjugate of …. In words: ELISA, coated antigen; supernatant IgG 377.5 ng/ml.
Protocol: as §1, §2
Experiment [24] concerns the target T1, recombinant Fc chimeric conjugate of …. In words: ELISA, coated antigen; supernatant IgG 1148.9 ng/ml.
Protocol: as §1, §2
Experiment [25] has as its target T2, recombinant Fc chimeric conjugate of …. The description is as above.
Protocol: as §1, §2
Experiment [26] concerns the target T4, recombinant Fc chimeric conjugate of …. The description is as above.
Protocol: as §1, §2
Experiment [27] addresses T1, recombinant Fc chimeric conjugate of …. In words: ELISA, coated antigen; supernatant IgG 1500.0 ng/ml.
Protocol: as §1, §2
Experiment [28] concerns the target T2, recombinant Fc chimeric conjugate of …. The description is as above.
Protocol: as §1, §2
The target of experiment [29] is T4, recombinant Fc chimeric conjugate of …. Described as above.
Protocol: as §1, §2
The target in experiment [30] is T1, recombinant Fc chimeric conjugate of …. In words: ELISA, coated antigen; supernatant IgG 425.7 ng/ml.
Protocol: as §1, §2
The target of experiment [31] is T2, recombinant Fc chimeric conjugate of …. In words: ELISA, coated antigen; supernatant IgG 425.7 ng/ml.
Protocol: as §1, §2
The target in experiment [32] is T4, recombinant Fc chimeric conjugate of …. In words: ELISA, coated antigen; supernatant IgG 425.7 ng/ml.
Protocol: as §1, §2

T4 sequence (P21860 20-643, change not shown): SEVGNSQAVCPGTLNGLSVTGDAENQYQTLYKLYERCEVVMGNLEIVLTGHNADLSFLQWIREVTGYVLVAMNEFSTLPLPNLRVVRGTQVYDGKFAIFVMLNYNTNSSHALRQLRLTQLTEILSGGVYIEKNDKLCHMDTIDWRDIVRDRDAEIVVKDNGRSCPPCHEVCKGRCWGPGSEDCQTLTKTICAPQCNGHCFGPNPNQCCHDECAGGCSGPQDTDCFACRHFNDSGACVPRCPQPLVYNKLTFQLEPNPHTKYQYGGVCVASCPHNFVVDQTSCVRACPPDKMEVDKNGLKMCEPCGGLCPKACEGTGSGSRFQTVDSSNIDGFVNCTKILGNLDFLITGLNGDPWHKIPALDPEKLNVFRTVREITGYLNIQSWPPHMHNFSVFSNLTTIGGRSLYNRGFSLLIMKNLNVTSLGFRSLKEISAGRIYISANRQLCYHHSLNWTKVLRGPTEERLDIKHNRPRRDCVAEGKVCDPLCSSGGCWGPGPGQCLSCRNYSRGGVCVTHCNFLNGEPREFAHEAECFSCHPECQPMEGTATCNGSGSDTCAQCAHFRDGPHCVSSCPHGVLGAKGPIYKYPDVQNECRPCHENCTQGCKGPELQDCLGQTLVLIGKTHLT
T3 sequence (P08581 25-932, change not shown): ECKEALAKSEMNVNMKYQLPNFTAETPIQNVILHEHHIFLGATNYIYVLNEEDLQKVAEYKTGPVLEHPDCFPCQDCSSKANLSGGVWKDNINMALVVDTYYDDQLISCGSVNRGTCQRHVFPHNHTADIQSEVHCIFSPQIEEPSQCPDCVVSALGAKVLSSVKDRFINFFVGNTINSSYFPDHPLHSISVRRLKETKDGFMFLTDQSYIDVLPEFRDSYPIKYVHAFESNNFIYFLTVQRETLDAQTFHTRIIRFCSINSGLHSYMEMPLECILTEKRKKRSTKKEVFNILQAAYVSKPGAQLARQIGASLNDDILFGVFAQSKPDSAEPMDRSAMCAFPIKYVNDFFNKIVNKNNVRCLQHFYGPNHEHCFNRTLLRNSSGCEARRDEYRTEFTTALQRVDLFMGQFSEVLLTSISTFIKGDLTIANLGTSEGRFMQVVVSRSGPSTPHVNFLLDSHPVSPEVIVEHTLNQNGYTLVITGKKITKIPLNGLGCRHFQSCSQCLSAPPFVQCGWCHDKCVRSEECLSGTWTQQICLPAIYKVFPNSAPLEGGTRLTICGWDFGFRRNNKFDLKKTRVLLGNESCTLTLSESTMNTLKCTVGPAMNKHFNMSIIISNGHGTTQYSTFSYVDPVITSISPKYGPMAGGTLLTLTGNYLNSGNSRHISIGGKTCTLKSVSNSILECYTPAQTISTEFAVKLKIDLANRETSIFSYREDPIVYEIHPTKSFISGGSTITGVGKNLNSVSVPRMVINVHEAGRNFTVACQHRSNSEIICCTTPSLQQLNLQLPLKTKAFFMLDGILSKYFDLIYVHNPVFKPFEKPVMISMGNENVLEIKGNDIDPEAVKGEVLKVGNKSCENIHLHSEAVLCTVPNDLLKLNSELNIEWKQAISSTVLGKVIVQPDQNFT
T5 sequence (P08069 31-935, change not shown): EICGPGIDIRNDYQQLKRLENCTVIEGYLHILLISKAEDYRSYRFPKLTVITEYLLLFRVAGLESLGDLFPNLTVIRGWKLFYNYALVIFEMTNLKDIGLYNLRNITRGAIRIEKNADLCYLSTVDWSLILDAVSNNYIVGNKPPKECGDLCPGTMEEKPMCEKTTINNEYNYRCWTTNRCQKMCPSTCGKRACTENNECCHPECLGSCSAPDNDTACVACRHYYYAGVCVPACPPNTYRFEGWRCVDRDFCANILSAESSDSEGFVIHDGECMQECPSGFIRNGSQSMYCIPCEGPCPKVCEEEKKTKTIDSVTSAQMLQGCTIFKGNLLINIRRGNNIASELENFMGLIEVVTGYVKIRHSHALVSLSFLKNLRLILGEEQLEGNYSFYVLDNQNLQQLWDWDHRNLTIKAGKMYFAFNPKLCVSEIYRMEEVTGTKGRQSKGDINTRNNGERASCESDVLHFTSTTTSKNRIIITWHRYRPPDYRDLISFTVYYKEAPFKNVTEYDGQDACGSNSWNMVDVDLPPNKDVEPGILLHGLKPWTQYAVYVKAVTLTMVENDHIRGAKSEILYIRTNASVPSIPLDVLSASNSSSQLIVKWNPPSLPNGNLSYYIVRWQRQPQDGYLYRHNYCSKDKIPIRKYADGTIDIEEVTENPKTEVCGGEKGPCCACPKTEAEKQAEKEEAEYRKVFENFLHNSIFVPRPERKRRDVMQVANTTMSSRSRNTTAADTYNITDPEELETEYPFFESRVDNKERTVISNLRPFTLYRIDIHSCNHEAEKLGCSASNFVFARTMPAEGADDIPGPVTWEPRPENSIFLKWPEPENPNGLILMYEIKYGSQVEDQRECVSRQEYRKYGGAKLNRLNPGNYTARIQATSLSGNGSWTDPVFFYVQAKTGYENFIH

B1: Antibody 077.D03 (antibody, V domains shown)
VH: QSVEESGGRLVTPGTPLTLTCTVSGIDLSSNAMSWVRQAPGKGLEWIGFISSSGTTYYASWAKGRFTISKTSTTVDLKITSPTTEDTATYFCTRFDLWGQGTLVTVSS
VL: DVVMTQTPASVSEPVGGTVTINCQASQSITTALAWYQQKPGQPPKLLIYKASTLASGVSSRFKGSGSGAEYTLTISDLECADAATYYCQCTGYDTSYVGGFGGGTEVVVK
notes: rabbit IgG in B-cell supernatant
B1: the binding result in [1], in [2] and in [3] was “no binding (tested: OD 0.1 or lower)” in each case.

B2: Antibody 77.B08 (antibody, V domains shown)
VH: QEHLVESGGGLVQPEGSLTLTCTASGFDFSSDDMSWVRQAPGKGLEWIGVIGTGNGGTYYASWAKGRFTISKTSSTTVTLQMTSLTAADTATYFCAAFWGLWGPGTLVTVSS
VL: AQVLTQTASPVSTPVGGTVTITCQSSQSVYNNNRLAWFQQKPGQPPKLLIYTASTLASGVPSRFKGSGSGTQFTLTISDLECDDAATYYCAGGYSTDIYTFGGGTEVVVR
notes: as for B1
Consider B2, for which the “Optical density (OD)” value in experiment [4] was 0.112 OD; in experiment [5], 0.242 OD; in experiment [6], 0.144 OD.

B3: Antibody B08 (antibody, V domains shown)
VH: B2 VH
VL: B2 VL with T13A, P14A, N33I, A53T, T55S, T96S
notes: as for B1
In the case of B3, the “Optical density (OD)” value in experiment [7] was 0.405 OD; in experiment [8], 0.402 OD; in experiment [9] it was 1.14 OD; in experiment [10] it was 0.7 OD.

B4: Antibody D11 (antibody, V domains shown)
VH: B2 VH
VL: B2 VL with A8P, T13A, P14A, T22N, S28N, N31R
notes: as for B1
Regarding B4, the binding result in experiment [11] was “no binding (tested: OD 0.1 or lower)”. The “Optical density (OD)” value is 0.119 OD in experiment [12], 1.76 OD in [13] and 0.149 OD in experiment [14].

B5: Antibody 48 (antibody, V domains shown)
VH: QSLEESGGDLVKPGASLTLTCTASGFDLNSDYWICWVRQAPGKGLEWIACIDTGYGDIYYASWAKGRFTISKTSSTTVTLQMTSLTAADTATYFCAREIIFHFNLWGPGTLVTVSS
VL: DVVMTQTPASVSEPVGGTVTIKCQASQSIRSYLAWYQQKPGQPPKVLIYKASTLASGVSSRFKGSGSGTQFTLTISDLECADAATYYCQGGVELNNYLYNPFGGGTEVVVK
notes: as for B1
Turning to B5, the figures for the “Optical density (OD)” value in experiment [15], in [16] and in [17] were 1.2 OD, 1.2 OD and 1.1 OD, respectively.

B6: Antibody 37 (antibody, V domains shown)
VH: B5 VH with K12Q, G14E, A15G, T22K, F26L, L28F, N29S, D31S, I70M, I99K
VL: B5 VL with R30K, S31N, A34S, I48L, L94V
notes: as for B1
B6: the “Optical density (OD)” value turned out to be 2.9 OD in [18], 2.7 OD in [19] and 2.7 OD in [20].

B7: Antibody 49 (antibody, V domains shown)
VH: B5 VH with D31N
VL: B5 VL with R30S, L94V
notes: as for B1
For B7, the figures for the “Optical density (OD)” value in [21], in experiment [22] and in [23] were 2.5 OD, 0.4 OD and 0.6 OD, respectively.

B8: Antibody 25 (antibody, V domains shown)
VH: B5 VH with T20I, S30T, D31N, T53S, S62T, T73A
VL: B5 VL with L94F, P101S
notes: as for B1
On to B8, for which the “Optical density (OD)” value amounted to 3.3 OD in experiment [24], 2.4 OD in [25] and 2.6 OD in experiment [26].

B9: Antibody 86 (antibody, V domains shown)
VH: QEQLKESGGGLVTPGGTLTLTCTVSGIDLSNYAMVWVRQAPGKGLEWIGIIYTTASTTYANWAKGRFTISKTSTTVDLKITSPTTEDTATYFCVRRSGWDGFDPWGPGTLVTVSS
VL: AQVLTQTPASVSAAVGGTVTINCQASESISSYLNWYQQKPGQPPKRLIYRTSTLASGVPSRFKGSGSGTDFTLTISGVECADAATYYCQQDWSSSDVENVFGGGTEVVVK
notes: as for B1
With B9, the “Optical density (OD)” value was 1.1 OD in [27], 1.8 OD in experiment [28] and 0.8 OD in experiment [29].

B10: Antibody 65 (antibody, V domains shown)
VH: QSVEESGGRLVTPGTPLTLTCTVSGFSLNNYYMTWVRQAPGKGLEWIGVISGSATTYYASWAKGRFTISQTSTTVDLRITSPTTEDTATYFCARSLTADIIDYYNIWGPGTLVTVSL
VL: DVVMTQTPASVSEPVGGTVTIKCQASEDINALLAWYQQKPGQPPKLLIYVASYLQSGVPSRFKGSGSGTEYTLTISGVQCADAATYYCQSAYDSSGYVGAFGGGTEVVVK
notes: as for B1
On to B10, for which the “Optical density (OD)” value in [30] is 2.5 OD; in [31], 2.9 OD; in experiment [32], 1.9 OD.
